Results taken from patent US20160237160A1 (Bayer, published 2016).

Assays:
Experiment in all cases: ELISA, Fc fusion protein coated at 1 µg/ml, TPP-2090 at 75 nM, Amplex Red;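 also: binding reported as ELISA signal intensity in Rfu against a panel of TNF receptor superfamily members presented as Fc fusion proteins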
[1] = molecular target: T1, OX40 (TNFRSF4) Fc fusion protein (Human, UniProt P43489 29-214)
T1 construct: extracellular domain; bought
T1 sequence (looked up): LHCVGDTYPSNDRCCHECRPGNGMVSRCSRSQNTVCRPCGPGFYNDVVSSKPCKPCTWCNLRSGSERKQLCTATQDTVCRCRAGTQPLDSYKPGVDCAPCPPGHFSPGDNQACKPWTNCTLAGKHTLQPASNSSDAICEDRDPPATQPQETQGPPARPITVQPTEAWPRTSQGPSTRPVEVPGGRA
Text: (§1) Shown is the result of an ELISA: Y is “ELISA signal intensity [Rfu]”; X are “TNF receptor superfamily proteins tested (Fc-fusion proteins)”: 1 is “TWEAKR”; 2 is “TWEAKR”; 3 is “Apo-3”; 4 is “Trail-R1”; 5 is “Trail-R2”; 6 is “CD385”; 7 is “CD95”; 8 is “Rank”; 9 is “TNF-R1”; 10 is “TNF-R2”; 11 is “BAFF-R”; 12 is “DcR3”; 13 is “BCMA”; 14 is “TACI”; 15 is “OX40”; 16 is “CD30”; 17 is “CD27”; 18 is “CD40”; 19 is “Osteoprotegerin”; 20 is “EDAR”; 21 is “GITR”; 22 is “HVEM”; 23 is “NGF R”; 24 is “Trail R3”; 25 is “Lymphotioxin B R”; 26 is “Trail R4”; 27 is “EDA2R”; 28 is “TROY”; 29 is “RELT”; 30 is “4-1BB”.
(§2) To collect dose-response data a serial 3fold dilution of biotinylated IgG starting with a concentration of 2 μM was used as soluble binding partner. Detection was done with anti-hIgG1-HRP and Amplex Red.

[2] = molecular target: T2, Apo-3 (TNFRSF25) Fc fusion protein (Human, UniProt Q93038 25-199)
T2 construct: extracellular domain; bought
T2 sequence (looked up): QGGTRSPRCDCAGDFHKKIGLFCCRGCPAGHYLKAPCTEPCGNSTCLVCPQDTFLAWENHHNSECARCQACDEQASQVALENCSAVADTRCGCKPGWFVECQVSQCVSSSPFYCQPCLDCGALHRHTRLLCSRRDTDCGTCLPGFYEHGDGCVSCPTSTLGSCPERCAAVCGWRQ
Text: as §1, §2

[3] = molecular target: T3, CD30 (TNFRSF8) Fc fusion protein (Human, UniProt P28908 19-385)
T3 construct: extracellular domain; bought
T3 sequence (looked up): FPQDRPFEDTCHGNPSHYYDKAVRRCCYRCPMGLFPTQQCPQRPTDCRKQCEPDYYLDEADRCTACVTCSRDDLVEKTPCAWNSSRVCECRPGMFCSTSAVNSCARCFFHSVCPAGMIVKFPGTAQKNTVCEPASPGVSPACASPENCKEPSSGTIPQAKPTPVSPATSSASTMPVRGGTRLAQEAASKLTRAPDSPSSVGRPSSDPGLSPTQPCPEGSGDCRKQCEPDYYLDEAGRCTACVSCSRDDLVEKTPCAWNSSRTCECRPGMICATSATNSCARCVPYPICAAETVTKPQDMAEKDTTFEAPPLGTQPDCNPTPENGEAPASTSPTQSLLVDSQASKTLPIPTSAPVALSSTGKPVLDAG
Text: as §1, §2

[4] = molecular target: T4, HVEM (TNFRSF14) Fc fusion protein (Human, UniProt Q92956 39-202)
T4 construct: extracellular domain; bought
T4 sequence (looked up): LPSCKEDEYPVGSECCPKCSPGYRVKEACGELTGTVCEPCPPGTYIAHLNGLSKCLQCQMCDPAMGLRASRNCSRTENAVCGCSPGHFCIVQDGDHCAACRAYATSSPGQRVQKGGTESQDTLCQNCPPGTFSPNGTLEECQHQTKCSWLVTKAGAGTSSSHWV
Text: as §1, §2

[5] = molecular target: T5, CD-385 (TNFRSF21) Fc fusion protein (Human, UniProt O75509 42-349)
T5 construct: extracellular domain; bought
T5 sequence (looked up): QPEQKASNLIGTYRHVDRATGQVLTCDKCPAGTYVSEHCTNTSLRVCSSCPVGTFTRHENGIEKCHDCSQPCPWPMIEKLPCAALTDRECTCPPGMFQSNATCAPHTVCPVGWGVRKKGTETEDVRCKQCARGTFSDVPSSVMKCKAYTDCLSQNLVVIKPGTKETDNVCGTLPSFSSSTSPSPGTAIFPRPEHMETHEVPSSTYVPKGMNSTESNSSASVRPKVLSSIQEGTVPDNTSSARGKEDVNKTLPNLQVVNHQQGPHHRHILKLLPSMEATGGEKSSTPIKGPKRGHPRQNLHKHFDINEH
Text: as §1, §2

[6] = molecular target: T6, DcR3 (TNFRSF6B) Fc fusion protein (Human, UniProt O95407 30-300)
T6 construct: extracellular domain; bought
T6 sequence (looked up): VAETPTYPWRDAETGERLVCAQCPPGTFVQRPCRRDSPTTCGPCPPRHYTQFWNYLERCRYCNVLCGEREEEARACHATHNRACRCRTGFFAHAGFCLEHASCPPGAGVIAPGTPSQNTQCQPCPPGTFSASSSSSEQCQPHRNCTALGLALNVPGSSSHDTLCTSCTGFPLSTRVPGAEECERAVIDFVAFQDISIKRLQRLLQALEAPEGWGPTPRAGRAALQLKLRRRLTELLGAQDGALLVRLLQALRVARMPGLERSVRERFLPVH
Text: as §1, §2

[7] = molecular target: T7, GITR (TNFRSF18) Fc fusion protein (Human, UniProt Q9Y5U5 26-162)
T7 construct: extracellular domain; bought
T7 sequence (looked up): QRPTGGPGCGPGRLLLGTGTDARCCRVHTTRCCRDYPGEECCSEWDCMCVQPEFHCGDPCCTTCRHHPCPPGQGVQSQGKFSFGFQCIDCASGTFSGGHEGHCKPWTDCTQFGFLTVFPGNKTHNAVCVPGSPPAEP
Text: as §1, §2

[8] = molecular target: T8, TNF-R2 (TNFRSF1B) Fc fusion protein (Human, UniProt P20333 23-257)
T8 construct: extracellular domain; bought
T8 sequence (looked up): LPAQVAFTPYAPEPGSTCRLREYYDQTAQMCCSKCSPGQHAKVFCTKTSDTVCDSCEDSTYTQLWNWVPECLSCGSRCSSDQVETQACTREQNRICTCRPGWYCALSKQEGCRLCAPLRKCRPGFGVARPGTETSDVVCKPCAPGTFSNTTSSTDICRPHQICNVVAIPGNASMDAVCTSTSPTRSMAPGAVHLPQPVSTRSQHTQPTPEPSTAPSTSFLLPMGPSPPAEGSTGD
Text: as §1, §2

[9] = molecular target: T9, RELT (TNFRSF19L) Fc fusion protein (Human, UniProt Q969Z4 26-162)
T9 construct: extracellular domain; bought
T9 sequence (looked up): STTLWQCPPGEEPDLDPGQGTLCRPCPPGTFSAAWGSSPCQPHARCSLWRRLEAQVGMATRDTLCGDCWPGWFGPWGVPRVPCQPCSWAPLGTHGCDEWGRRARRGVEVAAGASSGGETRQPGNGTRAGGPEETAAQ
Text: as §1, §2

Measured: binding result

B1: TPP-2090 (antibody, human IgG1, kappa, V domains shown)
VH: EVQLLESGGGLVQPGGSLRLSCAASGFTFSPYPMIWVRQAPGKGLEWVSYISPSGGSTHYADSVKGRFTISRDNSKNTLYLQMNSLRAEDTAVYYCARGGDTYFDYFDYWGQGTLVTVSS
VL: DIQMTQSPSSLSASVGDRVTITCRASQSISGYLNWYQQKPGKAPKLLIYQASSLQSGVPSRFSGSGSGTDFTLTISSLQPEDFATYYCQQSYTSPFITFGQGTKVEIKR
notes: Human IgG1
no binding (tested: 75 nM): all assays above
